Target: E. coli derived recombinant CRM197 (cross reacting material 197) (Corynebacterium diphtheriae C7 (β197))
Experiment: crystal structure; sitting drop, room temperature; 22.9 mg/ml protein in 0.15 M NaCl, 0.01 M Tris/HCl pH 8.3 mixed 1:1 with 0.2 M lithium sulfate, 0.1 M Bis-Tris pH 5.5, 25% (w/v) PEG 3350; data at 100 K; four molecules in the asymmetric unit (two domain-swapped dimers)

## E. coli derived recombinant CRM197 (cross reacting material 197) (natural protein)
  stoichiometry N: 2
